Measured values: US20210205413A1 (Nektar Therapeutics, priority 2018, published 2021)
Several values for one entry are separate records, joined by “and”; a condition that tells them apart may be missing. Identical values can stand only once. Entries after “also recorded” stand apart in the source; their conditions may differ.

Columns and labels:
CD56+ NK cells = assay: Phase I single ascending dose study in healthy volunteers: NK cells; assay type: in vivo, human
Protocol: (§1) A double-blind, randomized, placebo-controlled study is conducted to evaluate the safety, tolerability, pharmacokinetics, and pharmacodynamics of single ascending low sub-cutaneous doses of an RUR20kD-IL-2 composition (RUR20kD-IL-2) in healthy volunteers. […] Twelve subjects are randomized to each dose cohort, nine of whom received a single subcutaneous dose of RUR20kD-IL-2 while three received placebo. […] The drug product is supplied in single-use glass vials and stored at 2-8° C. […] Placebo is a commercially available 0.9% sodium chloride solution. A starting dose of 0.3 μg/kg is chosen using the minimally anticipated biological effect level (MABEL) approach and is supported by the no observed adverse effect level (NOAEL) in the most sensitive species from nonclinical toxicology studies.
(§2) The primary objective of the study is to evaluate the safety and tolerability of RUR20kD-IL-2 administered as a single subcutaneous dose. […] In a first phase of the study, immune markers are tested pre-dose up to 20 hours post-dose. Specifically, Tregs, CD4^+-T cells, CD8^+-T cells, natural killer (NK) cells, cytokines, soluble CD25, and RNA are tested in RUR20kD-IL-2- and placebo-receiving cohorts. In subsequent phases, the same immune markers are also tested at 4-, 5-, 6-, 7-, 8-, 10-, 12-, 15-, 18-, 20-, 25-, 30-, 40, and 50-days post-dose.

[1] = Single dose pharmacokinetics in monkeys (IV and SC); assay type: in vivo, Cynomolgus Monkeys
CD4 T cells, CD8 T cells = assay: Single-dose PK/PD study in mice: CD4 and CD8 T cells in blood; assay type: in vivo, C57BL/6 mice; conditions: single SC 0.3 mg/kg
Source text: Following administration, blood and spleen samples are collected at days 1-7 and day 10 post administration. More particularly, at each time point, blood and spleen samples are collected; samples are pooled and assessed for pharmacodynamic analysis of drug action on lymphocyte cell populations by flow cytometry (see e.g. Example 5), expressed as a fold change relative to vehicle control. In addition to changes in cell numbers, functional markers and markers of activity are quantified. Finally, plasma drug concentration is also assessed.

[2] = Single dose pharmacokinetics in rats (IV and SC, LS-2016-2033); assay type: in vivo, Sprague-Dawley Rats
[3] = Solution phase stability by HPLC; assay type: physicochemical; conditions: 5° C.
Protocol: The mobile phase is 0.2M ammonium acetate (pH 5.5) at a volume ratio of 80:20 with acetonitrile. The diluent/formulation buffer contained 10 mM sodium acetate, 200 mM sodium chloride, 2% sucrose, at a pH of 5.0. […] Samples are stable up to 5 days at 5° C. in solution.
(refrigerated), and −20° C. at 1, 3, 5, and 7-day time points by RP-HPLC as previously described.
Differences between the RUR20kD-IL-2 composition solutions are evaluated against a control, freshly prepared RUR20kD-IL-2 composition sample solution.

[4] = Phase I single ascending subcutaneous dose study in healthy volunteers: pharmacokinetics; assay type: in vivo, human; conditions: for AUC0-14 d / Cmax / tmax: Single Dose Study
Protocol: as §1, §2

[5] = Phase I single ascending dose study in healthy volunteers: safety and tolerability; assay type: in vivo, human; conditions: single SC doses
Protocol: as §1, §2

cGVHD model = assay: cGVHD model, repeat administration; assay type: in vivo
[6] = cynomolgus monkeys, single IV 0.025 mg/kg, mean of male and female
[7] = cynomolgus monkeys, single SC 0.025 mg/kg, mean of male and female
[8] = Sprague-Dawley rats, single IV 0.01 mg/kg, plasma, mean ± SE
[9] = Sprague-Dawley rats, single IV 0.1 mg/kg, plasma, mean ± SE
[10] = Sprague-Dawley rats, single IV 1 mg/kg, plasma, mean ± SE
[11] = Sprague-Dawley rats, single SC 0.01 mg/kg, plasma, mean ± SE
[12] = Sprague-Dawley rats, single SC 0.1 mg/kg, plasma, mean ± SE
[13] = Sprague-Dawley rats, single SC 1 mg/kg, plasma, mean ± SE

In the case of “(1,3-bis(methoxypoly(ethylene glycol)10kDcarbamoyl)-2-propanoxy)-4-butanamide)interleukin-2) [RUR20kD-IL-2]”, the “increase in NK cells” value (CD56+ NK cells; highest dose tested (28.0 μg/kg)) is reported as 2 fold and 3.5 fold, the “percentage of CD56+ NK cells expressing Ki67” value (CD56+ NK cells; single SC 3.0 μg/kg) is reported as ~10% and the “percentage of CD56+ NK cells expressing Ki67” value (CD56+ NK cells; single SC 6.0 μg/kg) is reported as 20-30%. For the same substance, the “percentage of CD56+ NK cells expressing Ki67” value (CD56+ NK cells; single SC 9.0 μg/kg) was 30-40%, the “percentage of CD56+ NK cells expressing Ki67” value (CD56+ NK cells; single SC 13.5 μg/kg) was 30-40% and the “percentage and absolute numbers of NK cells” value (CD56+ NK cells; single SC 13.5 and 20.0 μg/kg) was “small increase in the percentage and absolute numbers of NK cells”. For the same substance, the AUCinf [1, 6] was 100000 ng·h/mL, the AUClast [1, 6] was 71200 ng·h/mL and the Half-life [1, 6] was 310 h. The MRTinf [1, 6] was 403 h, the Vss [1, 6] was 0.1 L/kg and the CL ([1]; cynomolgus monkeys, single IV 0.025 mg/kg, mean of male and female, 0.025 mg/kg) was 5.88 mL/day/kg and 6 mL/day/kg. The AUCinf [1, 7] was 86000 ng·h/mL, the AUClast [1, 7] was 65400 ng·h/mL and the Cmax [1, 7] was 250 ng/mL. For the same substance, the Half-life [1, 7] was 250 h, the MRTinf [1, 7] was 360 h and the “Vss relative to species-specific plasma volume” value ([1]; monkeys) was 2-4 fold. For the same substance, the half-lives ([1]; monkeys, intravenous or subcutaneous dosing, range) was 10.4 to 12.9 days, the “changes to CD4 T cells” value (CD4 T cells, CD8 T cells) was “modest” and the “changes to CD8 T cells” value (CD4 T cells, CD8 T cells) was “slight decreases”. The AUCinf [2, 8] was 17800 ± 1000 ng·h/mL, the AUClast [2, 8] was 17800 ± 900 ng·h/mL and the CL [2, 8] was 13.4 ± 0.72 mL/day/kg. For the same substance, the Half-life [2, 8] was 30 ± 3.84 h, the MRTinf [2, 8] was 44.9 ± 5.04 h and the Vss [2, 8] was 0.0251 L/kg. It also gave an AUCinf [2, 9] of 120000 ± 8000 ng·h/mL, an AUClast [2, 9] of 120000 ± 8000 ng·h/mL and a CL [2, 9] of 20.2 ± 1.4 mL/day/kg. For the same substance, the Half-life [2, 9] was 40.1 ± 0.24 h, the MRTinf [2, 9] was 52.3 ± 0.96 h and the Vss [2, 9] was 0.0441 ± 0.0035 L/kg. It also gave an AUCinf [2, 10] of 877000 ± 39000 ng·h/mL, an AUClast [2, 10] of 870000 ± 35000 ng·h/mL and a CL [2, 10] of 27.4 ± 1.2 mL/day/kg. For the same substance, the Half-life [2, 10] was 37.4 ± 5.28 h, the MRTinf [2, 10] was 45.6 ± 3.84 h and the Vss [2, 10] was 0.0526 L/kg. The “Absolute Bioavailability” value ([2]; Sprague-Dawley rats, single SC 0.01 mg/kg) was 40.2%, the AUCinf [2, 11] was 7160 ± 530 ng·h/mL and the AUClast [2, 11] was 7120 ± 510 ng·h/mL. The Cmax [2, 11] was 95 ± 6 ng/mL, the Half-life [2, 11] was 32.4 ± 1.4 h and the MRTinf [2, 11] was 64.8 ± 1.4 h. The tmax [2, 11] was 31.9 ± 7.92 h, the “Absolute Bioavailability” value ([2]; Sprague-Dawley rats, single SC 0.1 mg/kg) was 29.8% and the AUCinf [2, 12] was 35700 ± 5100 ng·h/mL. It also gave an AUClast [2, 12] of 35500 ± 5100 ng·h/mL, a Cmax [2, 12] of 380 ± 40 ng/mL and a Half-life [2, 12] of 46.1 ± 1.9 h. For the same substance, the MRTinf [2, 12] was 82.1 ± 6.72 h, the tmax [2, 12] was 48 ± 0 h and the “Absolute Bioavailability” value ([2]; Sprague-Dawley rats, single SC 1 mg/kg) was 46.0%. It also gave an AUCinf [2, 13] of 404000 ± 79000 ng·h/mL, an AUClast [2, 13] of 398000 ± 74000 ng·h/mL and a Cmax [2, 13] of 4860 ± 930 ng/mL. It also gave a Half-life [2, 13] of 30.5 ± 7.68 h, an MRTinf [2, 13] of 67.7 ± 3.84 h and a tmax [2, 13] of 55.2 ± 7.92 h. For the same substance, the “Vss relative to species-specific plasma volume” value ([2]; rats) was 1-2 fold, the Bioavailability ([2]; rats, SC, range over doses) was 29.8-46.0% and the tmax ([2]; rats, SC, range over doses) was 24 to 55.2 h. For the same substance, the half-lives ([2]; rats, intravenous or subcutaneous dosing, range) was 1.25 to 2.44 days, the “Plasma clearance (CL)” value ([2]; rats, range over doses) was 13.4 to 27.4 mL/day/kg and the “time samples are stable in solution” value ([3]; 1.0 mg/mL in formulation buffer) was “up to 5 days”. The “relative difference of mono-PEG, tetra-PEG and penta-PEG species” value ([3]; 1.0 mg/mL solution pH 5, RT, −20° C. up to 7 days, RP-HPLC) was “up to 8%”, the AUC0-14 d ([4]; 3.0 μg/kg, Median (n = 9)) was 214 ng·days/mL and the Cmax ([4]; 3.0 μg/kg, Median (n = 9)) was 21 ng/mL. The tmax ([4]; 3.0 μg/kg, Median (n = 9)) was 84 h, the AUC0-14 d ([4]; 3.0 μg/kg, max) was 388 ng·days/mL and the Cmax ([4]; 3.0 μg/kg, max) was 41 ng/mL. The tmax ([4]; 3.0 μg/kg, max) was 336 h, the AUC0-14 d ([4]; 3.0 μg/kg, min) was 143 ng·days/mL and the Cmax ([4]; 3.0 μg/kg, min) was 13 ng/mL. The tmax ([4]; 3.0 μg/kg, min) was 31.2 h, the Cmax ([4]; 6.0 μg/kg, Median (n = 9)) was 46 ng/mL and the tmax ([4]; 6.0 μg/kg, Median (n = 9)) was 120 h. For the same substance, the AUC0-14 d ([4]; 6.0 μg/kg, max) was 705 ng·days/mL, the Cmax ([4]; 6.0 μg/kg, max) was 70 ng/mL and the tmax ([4]; 6.0 μg/kg, max) was 220 h. The AUC0-14 d ([4]; 6.0 μg/kg, min) was 73 ng·days/mL, the Cmax ([4]; 6.0 μg/kg, min) was 13 ng/mL and the tmax ([4]; 6.0 μg/kg, min) was 48 h. The Half-life ([4]; healthy volunteers, single SC dose, decline after approximately 2 weeks post-dose, preliminary) was 190 to 220 h, the “time of maximum concentrations post-dose” value ([4]; healthy volunteers, single SC dose, preliminary PK analysis) was 4 to 6 days and the adverse events [5] was “primarily limited to mild or moderate (Grade 1 or 2) injection site reactions; also recorded: primarily limited to mild (grade 1) injection site reactions”. The anti-drug antibodies [5] was “no elicitation of anti-drug antibodies; also recorded: none have been detected”, the “dose-limiting toxicities, serious adverse events, deaths, clinically significant abnormalities” value [5] was “No dose-limiting toxicities (DLTs), serious adverse events (SAEs), deaths, or clinically significant abnormalities; also recorded: no dose-limiting toxicities, deaths, or adverse events leading to study discontinuation; also recorded: no dose-limiting toxicities, serious adverse events, deaths, or clinically significant abnormalities in vital signs, electrocardiograms, or laboratory test values” and the “Tregs and germinal center B cells in spleen” value (cGVHD model) was “increases Tregs and decreases germinal center B cells in spleen”. For the same substance, the lung dysfunction (cGVHD model) was “reverses lung dysfunction”.
